No end group written: not given here.
Legend:
[1] = Comparison of joint retention time among radiolabeled peptides (QWBA, knee and IVD); assay type: in vivo; parameters: Peptide Signal Retention in Knee / Peptide Signal Retention in IVD: unit not given here; details: for joint retention: SEQ ID NO: 105 57-60 nmol, SEQ ID NO: 103 130 nmol, SEQ ID NO: 184 150 nmol
Experimental: Frozen carcasses were allowed to off gas hexane overnight at −20° and then embedded in chilled 2% carboxymethylcellulose (Sigma Aldrich) and sectioned sagittally at a thickness of 40 μm on an H/I Bright 8250 Cryostat (Hacker Instruments). Radioactive control guides were drilled into each block to verify even cutting depth along the length of the section. The radioactive guide consisted of ^14C-Glycine (American Radiolabeled Chemicals, “ARC”) at 0.5 uCi/ml in 0.5% BSA (Sigma Aldrich) in PBS. Sections were collected onto 4-inch wide tape (Scotch 821, ULINE) at 2-4 depths to sample approximately 30 tissues with particular focus on the knees and spine. Collected sections were freeze dried in the cryostat for 48-72 hours then mounted on sturdy paper and covered with a single protective layer of cellophane (Reynolds Food Service Film). Mounted sections were exposed to phosphor imager plates (Raytest) along with a radioactive standard Curve (1465-PL, ARC) for 7-days, scanned on a Raytest CR-35 at “25 μm sensitive” setting.
Quantification of the radioactivity detected in WBA samples was evaluated by measuring the pixel density/mm^2 (“SI”: Signal Intensity/Area−background) using AIDA Image Analyzer v 5.1 Whole Body Autoradiography Professional software (Raytest). Regions of interest (ROIs) were drawn manually around the entire visible tissue, comparing the sectioned sample to the autoradiogram. For quantification, all visible knee or IVD (intervertebral disc) tissues for one rodent across all collected sections were measured and averaged together to generate one knee or IVD value per animal. Typically were sampled 1-2 knee values (from femoral and tibial cartilage) per 1-2 sections per animal and 3-10 IVD per 1-2 sections per animal. To collect quantified values for other tissues, ROIs were drawn around blood in the heart ventricle, spinotrapezius muscle, the liver, or the kidney (including cortex and medulla) in all sections in which the tissue was observed and then averaged to yield one value per tissue per animal.
Data were presented as nmol of compound per gram of tissue. The commercial standard strips co-exposed with each WBA sample set were calibrated so that a known amount of radioactive counts per minute (CPM) per gram of tissue, determined by liquid scintillation counting (LSC), corresponded to the measured WBA SI at 11 standard strip concentration data points. The regression line of the log 10 transformed WBA signal intensity plotted against the log 10 transformed CPM/g gave a linear range of 1×10^5 to 7.5×10^7 WBA SI, corresponding to 6.3 nCi/g to 3.3 μCi/g. The log 10 concentration of radioactivity in each tissue (CPM/g) was interpolated from the standard curve, converted to linear values, and translated from CPM/g to uCi/g by interpolation against an LSC CPM to μCi standard curve. Uptake (nmol of compound/g of tissue) was determined by dividing the μCi/g tissue by the μCi/nmol specific activity of the peptide.
Peptide(SEQ ID NO: 105) was dosed at 57-60 nmol. Peptide(SEQ ID NO: 103) was dosed at 130 nmol. Peptide(SEQ ID NO: 184) was dosed at 150 nmol. […] It should be noted that detection of retention is based on an assay that detects radiolabeling of the N-terminus of each of the tested conjugates, thus decrease in signal over time may be due not only to peptide diffusion back out of the cartilage but also aminopeptidase-mediated removal of N-terminal amino acid, general peptide cleavage, or other mechanisms. Results as measured by QWBA methods described herein are shown in Tables 6 and 7 below and FIG. 11.

[2] = Biodistribution and pharmacokinetics of ^14C-labeled peptides in knee and IVD (QWBA); assay type: in vivo, athymic nude mice; details: for levels in knee and IVD compared with peptide(SEQ ID NO: 105): After 24 hours
Experimental: Synthetic peptides were radiolabeled by reductive methylation of the N-terminus with ^14C formaldehyde. 2 mice per time point were injected IV with 12.4 μCi of peptide (approximately 100 nmol or 18 mg/kg) and then euthanized at 0.08, 0.5, 1, 3, 8, 24, 48, 72, or 96 hours, followed by quantitative whole body autoradiography analysis.
To that end, the biodistribution pharmacokinetics of ^14C-labeled peptides ^14C-peptide(SEQ ID NO: 105), ^14C-peptide(SEQ ID NO: 103), and ^14C-peptide(SEQ ID NO: 184) to the knee (FIG. 19A and FIG. 19B) and intraverterbral discs (IVD, FIG. 19C and FIG. 19D) was assessed in mice (FIG. 19). Tissue levels were quantified by whole body autoradiography of peptides that had been radiolabeled by reductive methylation of the N-terminus. ^14C-peptide(SEQ ID NO: 105) and ^14C-peptide(SEQ ID NO: 103) both peaked in knee and IVD around 1-3 hours whereas ^14C-peptide(SEQ ID NO: 184) peaked later at 8 hours. […] All peptides still had observable signal at the last time point of 96 hours. […] As the peptide levels are based on the radiolabel attached to the N-terminus of the peptide, the decrease in signal with time may be due to aminopeptidase activity on the N-terminus of the peptides (which would not be relevant on PDC conjugates, where the drug linker is attached to the N-terminus), due to peptide diffusion back out of the cartilage, or due to general peptide backbone cleavage. For example, higher sustained levels of peptide in the cartilage may be desirable if drug cleavage has a slower pharmacokinetics, and if the peptide-drug conjugate is not saturating peptide binding sites in the cartilage when using repeat dosing. As another example, an earlier tmax in cartilage may be desirable to minimize premature cleavage of a conjugated drug in serum.

GSGDCLPHLRRCRENNDCCSRRCRRRGANPERRCR (not fully specified (N-terminus, bridges); cysteine pairing not given here) [peptide(SEQ ID NO: 184), cartilage-homing cystine-dense peptide; biodistribution with form ^14C-methylated on the N-terminus]
Peptide Signal Retention in IVD ([1]; 0.08 Hours): 53.02
Peptide Signal Retention in Knee ([1]; 0.08 Hours): 96.94
Peptide Signal Retention in IVD ([1]; 0.5 Hours): 49.70
Peptide Signal Retention in Knee ([1]; 0.5 Hours): 69.85
Peptide Signal Retention in IVD ([1]; 1 Hours): 100.00
Peptide Signal Retention in Knee ([1]; 1 Hours): 100.00
Peptide Signal Retention in IVD ([1]; 3 Hours): 238.11
Peptide Signal Retention in Knee ([1]; 3 Hours): 158.43
Peptide Signal Retention in IVD ([1]; 8 Hours): 119.97
Peptide Signal Retention in Knee ([1]; 8 Hours): 111.32
Peptide Signal Retention in IVD ([1]; 24 Hours): 64.00
Peptide Signal Retention in Knee ([1]; 24 Hours): 57.81
Peptide Signal Retention in IVD ([1]; 48 Hours): 49.99
Peptide Signal Retention in Knee ([1]; 48 Hours): 50.44
Peptide Signal Retention in IVD ([1]; 72 Hours): 52.20
Peptide Signal Retention in Knee ([1]; 72 Hours): 28.30
Peptide Signal Retention in IVD ([1]; 96 Hours): 36.54
Peptide Signal Retention in Knee ([1]; 96 Hours): 11.84
joint retention [1]: Longer joint retention
levels in knee and IVD compared with peptide(SEQ ID NO: 105) [2]: substantially higher levels
time of peak in knee and IVD ([2]; mice, approximately 100 nmol IV, QWBA): 8 h

GSSERDCIRHLQRCRENRDCCSRRCSRRGTNPERRCR (not fully specified (N-terminus, bridges); cysteine pairing not given here) [peptide(SEQ ID NO: 103), cartilage-homing cystine-dense peptide; biodistribution with form ^14C-methylated on the N-terminus]
Peptide Signal Retention in IVD ([1]; 0.08 Hours): 59.15
Peptide Signal Retention in Knee ([1]; 0.08 Hours): 79.20
Peptide Signal Retention in IVD ([1]; 0.5 Hours): 76.62
Peptide Signal Retention in Knee ([1]; 0.5 Hours): 110.57
Peptide Signal Retention in IVD ([1]; 1 Hours): 100.00
Peptide Signal Retention in Knee ([1]; 1 Hours): 100.00
Peptide Signal Retention in IVD ([1]; 3 Hours): 113.18
Peptide Signal Retention in Knee ([1]; 3 Hours): 103.00
Peptide Signal Retention in IVD ([1]; 8 Hours): 107.52
Peptide Signal Retention in Knee ([1]; 8 Hours): 98.94
Peptide Signal Retention in IVD ([1]; 24 Hours): 50.75
Peptide Signal Retention in Knee ([1]; 24 Hours): 44.60
Peptide Signal Retention in IVD ([1]; 48 Hours): 34.86
Peptide Signal Retention in Knee ([1]; 48 Hours): 29.30
joint retention [1]: Longer joint retention
levels in knee and IVD compared with peptide(SEQ ID NO: 105) [2]: substantially higher levels
